This is an account of results in publication PMC5927464 (2018).

The chains are these.
B2: (His)6-L* (purified recombinant L*DA) (natural protein)
chain: MDTQMCALFAQPLTLLPDLNICSWQTVNGSQRTFFVWTWTMTSSGLRTRAINLKQWNGLTYRSYAILSWNPRETPLHLTRVTPSPQVTKGSLLTTSIPINTKIQLICLPAVAMLATPPKTTDNCRTSWAALQMLLLLWHLSSWIKTQRRWRISLTE

Series [1] concerns the target T1, mouse RNase L (Mus musculus (mouse)) (UniProt Q05921).
T1 sequence: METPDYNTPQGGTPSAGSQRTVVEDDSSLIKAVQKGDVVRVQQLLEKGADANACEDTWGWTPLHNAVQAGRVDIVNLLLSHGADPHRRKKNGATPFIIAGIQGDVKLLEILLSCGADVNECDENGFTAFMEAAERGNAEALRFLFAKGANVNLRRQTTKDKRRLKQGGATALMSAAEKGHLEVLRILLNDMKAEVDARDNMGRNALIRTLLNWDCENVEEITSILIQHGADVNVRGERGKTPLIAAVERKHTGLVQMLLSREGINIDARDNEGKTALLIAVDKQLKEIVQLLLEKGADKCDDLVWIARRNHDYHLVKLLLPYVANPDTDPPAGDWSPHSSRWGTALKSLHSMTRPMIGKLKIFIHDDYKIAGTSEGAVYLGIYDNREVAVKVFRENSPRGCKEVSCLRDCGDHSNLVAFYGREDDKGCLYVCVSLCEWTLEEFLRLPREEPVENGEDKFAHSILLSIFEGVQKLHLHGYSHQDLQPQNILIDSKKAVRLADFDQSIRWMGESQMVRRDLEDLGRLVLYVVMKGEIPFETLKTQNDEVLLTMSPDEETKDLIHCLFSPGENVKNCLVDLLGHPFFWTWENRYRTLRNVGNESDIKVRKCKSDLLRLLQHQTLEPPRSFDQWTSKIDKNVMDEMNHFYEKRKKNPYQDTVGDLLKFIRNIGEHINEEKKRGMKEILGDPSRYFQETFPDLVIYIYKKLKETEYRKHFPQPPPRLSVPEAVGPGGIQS
As to the kind of experiment: SPR competition. To be noted: 2'-5' phosphodiester linkages; 5'-triphosphate; trimer p3A2'p5'A2'p5'A assumed (oligomer length used in SPR not stated); SPR on Biacore 3000; HBS-P SPR buffer (0.005% surfactant P20), 10 ul/min, 3 min association, 5 min dissociation, 25 C stated for GST-RNase L capture; 1:1 …. In general terms: SPR reads the build-up and loss of mass on a sensor chip optically.

The target in series [2] is B2. Nature of the series: SPR; immobilized L*.
Series [3] addresses (His)6-L* (purified recombinant L*DA) (Theiler's murine encephalomyelitis virus, strain DA). Nature of the series: SPR; Biacore 3000; (His)6-L* immobilized on Ni-NTA chips, mouse or human RNase L injected; 10 μl/min, 3 min association, 5 min dissociation; 1:1 Langmuir model, global fitting.
Series [4] has as its target B2. As to the kind of experiment: SPR; immobilized L*.
The target in series [5] is T2, purified recombinant GST-tagged murine RNase L (mouse, UniProt Q05921 1-735).
T2 chain: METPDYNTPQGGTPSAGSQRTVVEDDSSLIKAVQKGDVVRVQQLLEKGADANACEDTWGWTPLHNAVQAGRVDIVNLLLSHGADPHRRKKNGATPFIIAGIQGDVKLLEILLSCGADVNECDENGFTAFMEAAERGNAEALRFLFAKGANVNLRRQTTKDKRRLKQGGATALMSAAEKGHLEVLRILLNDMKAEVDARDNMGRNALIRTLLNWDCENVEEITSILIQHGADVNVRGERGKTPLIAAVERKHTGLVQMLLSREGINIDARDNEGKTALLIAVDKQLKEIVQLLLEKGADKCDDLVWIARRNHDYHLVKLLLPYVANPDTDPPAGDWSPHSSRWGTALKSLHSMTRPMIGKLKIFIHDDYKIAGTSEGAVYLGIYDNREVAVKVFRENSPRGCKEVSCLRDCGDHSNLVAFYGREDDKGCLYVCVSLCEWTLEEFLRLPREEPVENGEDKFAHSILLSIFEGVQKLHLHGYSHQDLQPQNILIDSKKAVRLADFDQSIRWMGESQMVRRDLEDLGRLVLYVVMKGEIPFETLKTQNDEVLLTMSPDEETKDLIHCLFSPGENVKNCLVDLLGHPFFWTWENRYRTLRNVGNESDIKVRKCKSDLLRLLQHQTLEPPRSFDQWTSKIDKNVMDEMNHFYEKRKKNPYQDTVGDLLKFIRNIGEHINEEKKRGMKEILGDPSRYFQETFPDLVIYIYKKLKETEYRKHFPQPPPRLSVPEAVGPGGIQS
As to the kind of experiment: SPR; immobilized mouse RNase L.

The target in series [6] is T2, purified recombinant GST-tagged murine …. As to the kind of experiment: SPR; immobilized mouse RNase L.
The target is the same in series [7]. As to the kind of experiment: SPR; immobilized mouse RNase L.

AAA [2-5A (unlabeled)] came in with an IC50 in series [1] of 13.2 nM.

B1: purified recombinant mouse RNase L (enzyme)
chain: METPDYNTPQGGTPSAGSQRTVVEDDSSLIKAVQKGDVVRVQQLLEKGADANACEDTWGWTPLHNAVQAGRVDIVNLLLSHGADPHRRKKNGATPFIIAGIQGDVKLLEILLSCGADVNECDENGFTAFMEAAERGNAEALRFLFAKGANVNLRRQTTKDKRRLKQGGATALMSAAEKGHLEVLRILLNDMKAEVDARDNMGRNALIRTLLNWDCENVEEITSILIQHGADVNVRGERGKTPLIAAVERKHTGLVQMLLSREGINIDARDNEGKTALLIAVDKQLKEIVQLLLEKGADKCDDLVWIARRNHDYHLVKLLLPYVANPDTDPPAGDWSPHSSRWGTALKSLHSMTRPMIGKLKIFIHDDYKIAGTSEGAVYLGIYDNREVAVKVFRENSPRGCKEVSCLRDCGDHSNLVAFYGREDDKGCLYVCVSLCEWTLEEFLRLPREEPVENGEDKFAHSILLSIFEGVQKLHLHGYSHQDLQPQNILIDSKKAVRLADFDQSIRWMGESQMVRRDLEDLGRLVLYVVMKGEIPFETLKTQNDEVLLTMSPDEETKDLIHCLFSPGENVKNCLVDLLGHPFFWTWENRYRTLRNVGNESDIKVRKCKSDLLRLLQHQTLEPPRSFDQWTSKIDKNVMDEMNHFYEKRKKNPYQDTVGDLLKFIRNIGEHINEEKKRGMKEILGDPSRYFQETFPDLVIYIYKKLKETEYRKHFPQPPPRLSVPEAVGPGGIQS
With B1, in series [2], the Ka came to 760000 M⁻¹. Besides, the Kd in series [3] came out at 1300 nM. Moreover, in series [4], the koff was 0.0027 s⁻¹.
For the molecule B2, in series [5], the koff came out at 0.0015 s⁻¹. Besides, in series [6], the Ka was 2e+06 M⁻¹. The Kd in series [7] was determined as 490 nM.

Broadly, the IC50 is the concentration that inhibits the measured activity by half. A high value points to weaker potency. Usually Kd stands for the equilibrium constant for the complex coming apart. By koff is commonly meant the rate constant with which the complex falls apart.
